Assay results taken from the MegaScale stability set (Tsuboyama et al. 2023).

B1: EEHEE_rd4_0003 (parent)
chain: KKVTINGVEIKFNNPEEAVKFALELAKRLNLRIEFHGDQIKIE

Variants of: B1
Assay: folding stability dG (cDNA display proteolysis); higher = more stable
Settings: PBS, room temperature

Variant | folding stability dG [kcal/mol]
KKVTINVVEIKFNNPEEAVKFALELAKRLNLRIEFHGDQIKIE | 2.45
KKVTINKVEIKFNNPEEAVKFALELAKRLNLRIEFHGDQIKIE | 2.09
KKVTINTVEIKFNNPEEAVKFALELAKRLNLRIEFHGDQIKIE | 1.98
KKVTINIVEIKFNNPEEAVKFALELAKRLNLRIEFHGDQIKIE | 2.84
KKVTINQVEIKFNNPEEAVKFALELAKRLNLRIEFHGDQIKIE | 1.96
KKVTINLVEIKFNNPEEAVKFALELAKRLNLRIEFHGDQIKIE | 2.42
KKVTINMVEIKFNNPEEAVKFALELAKRLNLRIEFHGDQIKIE | 2.2
KKVTINPVEIKFNNPEEAVKFALELAKRLNLRIEFHGDQIKIE | 2.01
KKVTINRVEIKFNNPEEAVKFALELAKRLNLRIEFHGDQIKIE | 1.87
KKVTINYVEIKFNNPEEAVKFALELAKRLNLRIEFHGDQIKIE | 2.23
KKVTINSVEIKFNNPEEAVKFALELAKRLNLRIEFHGDQIKIE | 1.85
KKVTINNVEIKFNNPEEAVKFALELAKRLNLRIEFHGDQIKIE | 2.11
KKVTINWVEIKFNNPEEAVKFALELAKRLNLRIEFHGDQIKIE | 2.54
KKVTINGVEISFNNPEEAVKFALELAKRLNLRIEFHGDQIKIE | 2.72
KKVTINGVEIVFNNPEEAVKFALELAKRLNLRIEFHGDQIKIE | 2.96
KKVTINGVEIYFNNPEEAVKFALELAKRLNLRIEFHGDQIKIE | 3.32
KKVTINGVEIMFNNPEEAVKFALELAKRLNLRIEFHGDQIKIE | 2.99
KKVTINGVEILFNNPEEAVKFALELAKRLNLRIEFHGDQIKIE | 3.02
KKVTINGVEIQFNNPEEAVKFALELAKRLNLRIEFHGDQIKIE | 2.72
KKVTINGVEIFFNNPEEAVKFALELAKRLNLRIEFHGDQIKIE | 3.26
KKVTINGVEIDFNNPEEAVKFALELAKRLNLRIEFHGDQIKIE | 2.3
KKVTINGVEIHFNNPEEAVKFALELAKRLNLRIEFHGDQIKIE | 3.03
KKVTINGVEITFNNPEEAVKFALELAKRLNLRIEFHGDQIKIE | 2.85
KKVTINGVEIPFNNPEEAVKFALELAKRLNLRIEFHGDQIKIE | 2.22

Variant | folding stability dG [kcal/mol]
KKVTINGVEIIFNNPEEAVKFALELAKRLNLRIEFHGDQIKIE | 3
KKVTINGVEIWFNNPEEAVKFALELAKRLNLRIEFHGDQIKIE | 3.53
KKVTINGVEIEFNNPEEAVKFALELAKRLNLRIEFHGDQIKIE | 2.77
KKVTINGVEIRFNNPEEAVKFALELAKRLNLRIEFHGDQIKIE | 2.78
KKVTINGVEIAFNNPEEAVKFALELAKRLNLRIEFHGDQIKIE | 2.6
KKVTINGVEIGFNNPEEAVKFALELAKRLNLRIEFHGDQIKIE | 2.28
KKVTINGVEICFNNPEEAVKFALELAKRLNLRIEFHGDQIKIE | 3.94
KKVTINGVEINFNNPEEAVKFALELAKRLNLRIEFHGDQIKIE | 2.83
KKVTINGVEVKFNNPEEAVKFALELAKRLNLRIEFHGDQIKIE | 2.22
KKVTINGVEYKFNNPEEAVKFALELAKRLNLRIEFHGDQIKIE | 2.99
KKVTINGVEWKFNNPEEAVKFALELAKRLNLRIEFHGDQIKIE | 2.55
KKVTINGVEKKFNNPEEAVKFALELAKRLNLRIEFHGDQIKIE | 1.83
KKVTINGVEMKFNNPEEAVKFALELAKRLNLRIEFHGDQIKIE | 2.36
KKVTINGVEEKFNNPEEAVKFALELAKRLNLRIEFHGDQIKIE | 1.36
KKVTINGVECKFNNPEEAVKFALELAKRLNLRIEFHGDQIKIE | 3.45
KKVTINGVEFKFNNPEEAVKFALELAKRLNLRIEFHGDQIKIE | 2.89
KKVTINGVEHKFNNPEEAVKFALELAKRLNLRIEFHGDQIKIE | 2.49
KKVTINGVEGKFNNPEEAVKFALELAKRLNLRIEFHGDQIKIE | 1.21
KKVTINGVENKFNNPEEAVKFALELAKRLNLRIEFHGDQIKIE | 1.5
KKVTINGVEAKFNNPEEAVKFALELAKRLNLRIEFHGDQIKIE | 1.65
KKVTINGVERKFNNPEEAVKFALELAKRLNLRIEFHGDQIKIE | 1.88
KKVTINGVESKFNNPEEAVKFALELAKRLNLRIEFHGDQIKIE | 1.6
KKVTINGVETKFNNPEEAVKFALELAKRLNLRIEFHGDQIKIE | 1.78
KKVTINGVEDKFNNPEEAVKFALELAKRLNLRIEFHGDQIKIE | 1.28

Variant | folding stability dG [kcal/mol]
KKVTINGVEPKFNNPEEAVKFALELAKRLNLRIEFHGDQIKIE | 1.19
KKVTINGVELKFNNPEEAVKFALELAKRLNLRIEFHGDQIKIE | 2.6
KKVTINGVEQKFNNPEEAVKFALELAKRLNLRIEFHGDQIKIE | 1.65
KKVTINGVEIKFLNPEEAVKFALELAKRLNLRIEFHGDQIKIE | 2.72
KKVTINGVEIKFKNPEEAVKFALELAKRLNLRIEFHGDQIKIE | 2.8
KKVTINGVEIKFHNPEEAVKFALELAKRLNLRIEFHGDQIKIE | 2.45
KKVTINGVEIKFENPEEAVKFALELAKRLNLRIEFHGDQIKIE | 2.59
KKVTINGVEIKFGNPEEAVKFALELAKRLNLRIEFHGDQIKIE | 2.44
KKVTINGVEIKFANPEEAVKFALELAKRLNLRIEFHGDQIKIE | 2.8
KKVTINGVEIKFDNPEEAVKFALELAKRLNLRIEFHGDQIKIE | 2.73
KKVTINGVEIKFCNPEEAVKFALELAKRLNLRIEFHGDQIKIE | 3.31
KKVTINGVEIKFINPEEAVKFALELAKRLNLRIEFHGDQIKIE | 2.59
KKVTINGVEIKFFNPEEAVKFALELAKRLNLRIEFHGDQIKIE | 2.54
KKVTINGKEIKFNNPEEAVKFALELAKRLNLRIEFHGDQIKIE | 2.4
KKVTINGPEIKFNNPEEAVKFALELAKRLNLRIEFHGDQIKIE | 1.6
KKVTINGFEIKFNNPEEAVKFALELAKRLNLRIEFHGDQIKIE | 2.71
KKVTINGSEIKFNNPEEAVKFALELAKRLNLRIEFHGDQIKIE | 1.97
KKVTINGDEIKFNNPEEAVKFALELAKRLNLRIEFHGDQIKIE | 1.65
KKVTINGNEIKFNNPEEAVKFALELAKRLNLRIEFHGDQIKIE | 2
KKVTINGREIKFNNPEEAVKFALELAKRLNLRIEFHGDQIKIE | 2.56
KKVTINGLEIKFNNPEEAVKFALELAKRLNLRIEFHGDQIKIE | 2.51
KKVTINGGEIKFNNPEEAVKFALELAKRLNLRIEFHGDQIKIE | 1.78
KKVTINGAEIKFNNPEEAVKFALELAKRLNLRIEFHGDQIKIE | 2.03
KKVTINGCEIKFNNPEEAVKFALELAKRLNLRIEFHGDQIKIE | 3.55

Variant | folding stability dG [kcal/mol]
KKVTINGTEIKFNNPEEAVKFALELAKRLNLRIEFHGDQIKIE | 2.24
KKVTINGQEIKFNNPEEAVKFALELAKRLNLRIEFHGDQIKIE | 2.25
KKVTINGWEIKFNNPEEAVKFALELAKRLNLRIEFHGDQIKIE | 2.75
KKVTINGHEIKFNNPEEAVKFALELAKRLNLRIEFHGDQIKIE | 2.53
KKVTINGYEIKFNNPEEAVKFALELAKRLNLRIEFHGDQIKIE | 2.82
KKVTINGMEIKFNNPEEAVKFALELAKRLNLRIEFHGDQIKIE | 2.51
KKVTINGEEIKFNNPEEAVKFALELAKRLNLRIEFHGDQIKIE | 1.99
KKVTINGIEIKFNNPEEAVKFALELAKRLNLRIEFHGDQIKIE | 2.74
KKVTINGVTIKFNNPEEAVKFALELAKRLNLRIEFHGDQIKIE | 2.98
KKVTINGVHIKFNNPEEAVKFALELAKRLNLRIEFHGDQIKIE | 2.46
KKVTINGVYIKFNNPEEAVKFALELAKRLNLRIEFHGDQIKIE | 2.58
KKVTINGVQIKFNNPEEAVKFALELAKRLNLRIEFHGDQIKIE | 2.46
KKVTINGVCIKFNNPEEAVKFALELAKRLNLRIEFHGDQIKIE | 3.54
KKVTINGVLIKFNNPEEAVKFALELAKRLNLRIEFHGDQIKIE | 2.78
KKVTINGVGIKFNNPEEAVKFALELAKRLNLRIEFHGDQIKIE | 2.12
KKVTINGVDIKFNNPEEAVKFALELAKRLNLRIEFHGDQIKIE | 2.3
KKVTINGVFIKFNNPEEAVKFALELAKRLNLRIEFHGDQIKIE | 2.53
KKVTINGVKIKFNNPEEAVKFALELAKRLNLRIEFHGDQIKIE | 2.08
KKVTINGVWIKFNNPEEAVKFALELAKRLNLRIEFHGDQIKIE | 2.73
KKVTINGVPIKFNNPEEAVKFALELAKRLNLRIEFHGDQIKIE | 2.3
KKVTINGVAIKFNNPEEAVKFALELAKRLNLRIEFHGDQIKIE | 2.4
KKVTINGVIIKFNNPEEAVKFALELAKRLNLRIEFHGDQIKIE | 2.85
KKVTINGVSIKFNNPEEAVKFALELAKRLNLRIEFHGDQIKIE | 2.58
KKVTINGVRIKFNNPEEAVKFALELAKRLNLRIEFHGDQIKIE | 2.36

Variant | folding stability dG [kcal/mol]
KKVTINGVVIKFNNPEEAVKFALELAKRLNLRIEFHGDQIKIE | 2.94
KKVTINGVNIKFNNPEEAVKFALELAKRLNLRIEFHGDQIKIE | 2.19
KKVTINGVMIKFNNPEEAVKFALELAKRLNLRIEFHGDQIKIE | 2.62
KKVTINGVEIKTNNPEEAVKFALELAKRLNLRIEFHGDQIKIE | 1.7
KKVTINGVEIKMNNPEEAVKFALELAKRLNLRIEFHGDQIKIE | 1.96
KKVTINGVEIKANNPEEAVKFALELAKRLNLRIEFHGDQIKIE | 1.48
KKVTINGVEIKINNPEEAVKFALELAKRLNLRIEFHGDQIKIE | 1.9
KKVTINGVEIKHNNPEEAVKFALELAKRLNLRIEFHGDQIKIE | 1.45
KKVTINGVEIKWNNPEEAVKFALELAKRLNLRIEFHGDQIKIE | 2.14
KKVTINGVEIKENNPEEAVKFALELAKRLNLRIEFHGDQIKIE | 0.907
KKVTINGVEIKKNNPEEAVKFALELAKRLNLRIEFHGDQIKIE | 1.09
KKVTINGVEIKYNNPEEAVKFALELAKRLNLRIEFHGDQIKIE | 1.89
KKVTINGVEIKSNNPEEAVKFALELAKRLNLRIEFHGDQIKIE | 1.57
KKVTINGVEIKNNNPEEAVKFALELAKRLNLRIEFHGDQIKIE | 1.33
KKVTINGVEIKRNNPEEAVKFALELAKRLNLRIEFHGDQIKIE | 1.41
KKVTINGVEIKQNNPEEAVKFALELAKRLNLRIEFHGDQIKIE | 1.13
KKVTINGVEIKVNNPEEAVKFALELAKRLNLRIEFHGDQIKIE | 1.86
KKVTINGVEIKCNNPEEAVKFALELAKRLNLRIEFHGDQIKIE | 3.25
KKVTINGVEIKPNNPEEAVKFALELAKRLNLRIEFHGDQIKIE | 1.14
KKVTINGVEIKDNNPEEAVKFALELAKRLNLRIEFHGDQIKIE | 0.955
KKVTINGVEIKLNNPEEAVKFALELAKRLNLRIEFHGDQIKIE | 1.92
KKVTINGVEIKGNNPEEAVKFALELAKRLNLRIEFHGDQIKIE | 1.55
